In article PMC3506659, “Snm1B Interacts with PSF2” (PLoS ONE, 2012):
Values belong to the molecule of their own block, whether it stands above or below them.

What was measured:
[1] = molecular target: N-terminal Myc epitope-tagged human PSF2 (Myc-PSF2) (UniProt Q9Y248); assay: co-immunoprecipitation (IP anti-Flag, IB anti-Myc), band ratio; details: 293T cells, transient expression
[2] = molecular target: T1, N-terminal Flag epitope-tagged human Snm1B (Flag-Snm1B) (human, UniProt Q9H816 1-532); assay: co-IP; 293T transiently co-transfected, RIPA lysate, Flag-Snm1B immunoprecipitated with anti-Flag M2 affinity gel at 4°C overnight, immunoblot for Myc-PSF2 or Mus81; with or without co-expressed Myc-PSF2 or HA-Mus81; details: partners not purified
T1 construct: also called Flag-Snm1B-WT; Flag-Snm1B^WT; source: 293T, transiently transfected (pLPC), in lysate; not shown: Flag, N-terminal, kept
T1 sequence (looked up): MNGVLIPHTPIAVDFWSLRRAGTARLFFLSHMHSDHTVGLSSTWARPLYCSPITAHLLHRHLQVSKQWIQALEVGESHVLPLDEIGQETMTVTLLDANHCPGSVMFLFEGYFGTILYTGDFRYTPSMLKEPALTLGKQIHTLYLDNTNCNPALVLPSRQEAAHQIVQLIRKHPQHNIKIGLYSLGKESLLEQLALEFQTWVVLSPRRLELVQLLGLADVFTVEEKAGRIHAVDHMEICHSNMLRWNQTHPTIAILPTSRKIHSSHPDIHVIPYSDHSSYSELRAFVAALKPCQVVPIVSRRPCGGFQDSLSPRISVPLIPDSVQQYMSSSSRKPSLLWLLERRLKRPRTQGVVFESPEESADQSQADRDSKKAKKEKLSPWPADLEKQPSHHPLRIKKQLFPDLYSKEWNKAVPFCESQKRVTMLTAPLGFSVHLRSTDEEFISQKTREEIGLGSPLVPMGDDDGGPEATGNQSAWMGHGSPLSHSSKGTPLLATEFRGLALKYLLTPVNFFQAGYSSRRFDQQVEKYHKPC

GFP-Flag-Snm1B^221–363 = molecular target: T2, GFP-Flag-Snm1B^221–363 (human, UniProt Q9H816 221-363); assay: co-IP; 293T transiently co-transfected, RIPA lysate, GFP-Flag-Snm1B fragments immunoprecipitated with anti-GFP antibody and GammaBind G Sepharose, immunoblot anti-Myc; details: partners not purified
T2 construct: Named GFP-Flag-Snm1B: the Flag tag is at the 5′ end of the Snm1B fragment, GFP is fused in frame; also called PSF2 BR1; source: 293T, transiently transfected (pEGFP-C3), in lysate; not shown: Flag, N-terminal, kept
T2 sequence (looked up): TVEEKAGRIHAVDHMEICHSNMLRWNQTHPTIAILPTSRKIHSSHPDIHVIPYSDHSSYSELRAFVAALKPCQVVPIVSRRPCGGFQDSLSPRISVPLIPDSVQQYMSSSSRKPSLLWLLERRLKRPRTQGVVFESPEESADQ

Flag-Snm1B^Δ222–363 = molecular target: T3, Flag-Snm1B^Δ222–363 (human, UniProt Q9H816 1-221; Q9H816 364-532); assay: co-IP; 293T transiently co-transfected, RIPA lysate, Flag-Snm1B immunoprecipitated with anti-Flag M2 affinity gel at 4°C overnight, immunoblot for Myc-PSF2 or Mus81; with or without co-expressed Myc-PSF2 or HA-Mus81; details: partners not purified
T3 construct: RGR is my translation read in frame from its first base; source: 293T, transiently transfected (pLPC), in lysate; not shown: Flag, N-terminal, kept
T3 chain: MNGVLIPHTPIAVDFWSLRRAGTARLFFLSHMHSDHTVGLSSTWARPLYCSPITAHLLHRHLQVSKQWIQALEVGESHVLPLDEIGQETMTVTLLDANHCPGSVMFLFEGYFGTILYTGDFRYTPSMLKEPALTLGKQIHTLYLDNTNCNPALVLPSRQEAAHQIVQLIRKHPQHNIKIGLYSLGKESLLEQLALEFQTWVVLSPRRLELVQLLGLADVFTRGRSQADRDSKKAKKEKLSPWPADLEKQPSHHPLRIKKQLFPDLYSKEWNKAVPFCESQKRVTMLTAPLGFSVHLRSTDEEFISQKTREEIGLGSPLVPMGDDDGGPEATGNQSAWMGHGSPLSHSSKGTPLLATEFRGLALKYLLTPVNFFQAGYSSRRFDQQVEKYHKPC

other: normalized Myc-PSF2:Flag-Snm1B ratio ([1]; no Myc-TRF2 co-expressed, parent: 1): 1.05
other: normalized Myc-PSF2:Flag-Snm1B ratio ([1]; wild type Myc-TRF2 co-expressed (parent value is Flag-Snm1B WT + Myc-TRF2 WT + Myc-PSF2 lane), parent: 0.41): 0.81
Molecule: N-terminal Flag epitope-tagged human Snm1B (Flag-Snm1B) (from UniProt Q9H816) N2

fold increase of co-immunoprecipitated Mus81 with Myc-PSF2 against without Myc-PSF2 [2]: > 2 fold
B1: HA epitope-tagged Mus81 (HA-Mus81) (natural protein, UniProt Q96NY9 1-551, looked up)
chain: MAAPVRLGRKRPLPACPNPLFVRWLTEWRDEATRSRRRTRFVFQKALRSLRRYPLPLRSGKEAKILQHFGDGLCRMLDERLQRHRTSGGDHAPDSPSGENSPAPQGRLAEVQDSSMPVPAQPKAGGSGSYWPARHSGARVILLVLYREHLNPNGHHFLTKEELLQRCAQKSPRVAPGSARPWPALRSLLHRNLVLRTHQPARYSLTPEGLELAQKLAESEGLSLLNVGIGPKEPPGEETAVPGAASAELASEAGVQQQPLELRPGEYRVLLCVDIGETRGGGHRPELLRELQRLHVTHTVRKLHVGDFVWVAQETNPRDPANPGELVLDHIVERKRLDDLCSSIIDGRFREQKFRLKRCGLERRVYLVEEHGSVHNLSLPESTLLQAVTNTQVIDGFFVKRTADIKESAAYLALLTRGLQRLYQGHTLRSRPWGTPGNPESGAMTSPNPLCSLLTFSDFNAGAIKNKAQSVREVFARQLMQVRGVSGEKAAALVDRYSTPASLLAAYDACATPKEQETLLSTIKCGRLQRNLGPALSRTLSQLYCSYGPLT
notes: Mus81, subunit of the Mus81/Eme1 endonuclease; amplified from clone MGC:14953 (Imagenes); Detected with an anti-Mus81 antibody, which may also see the endogenous Mus81 of 293T cells; source: 293T, transiently transfected (pcDNA3), in lysate; not shown: HA, N-terminal, kept

fold of co-immunoprecipitated Myc-PSF2 against GFP-Flag-Snm1B 413–532 (GFP-Flag-Snm1B^221–363): ~3 fold more
fold of co-immunoprecipitated Myc-PSF2 against Flag-Snm1B WT (Flag-Snm1B^Δ222–363): ~6 fold less
B2: N-terminal Myc epitope-tagged human PSF2 (Myc-PSF2) (natural protein, UniProt Q9Y248 1-185, looked up)
chain: MDAAEVEFLAEKELVTIIPNFSLDKIYLIGGDLGPFNPGLPVEVPLWLAINLKQRQKCRLLPPEWMDVEKLEKMRDHERKEETFTPMPSPYYMELTKLLLNHASDNIPKADEIRTLVKDMWDTRIAKLRVSADSFVRQQEAHAKLDNLTLMEINTSGTFLTQALNHMYKLRTNLQPLESTQSQDF
notes: PSF2, subunit of the GINS complex, human, full length; amplified from clone MGC-673 (ATCC); source: 293T, transiently transfected (pCMV-MYC), in lysate; not shown: Myc, N-terminal, kept
